Source: doi:10.1101/2021.10.12.464151

B1: Kip3FL^K257A-R262A (natural protein)
chain: MNVPETRQSSIVVAIRVRPFTSMEKTRLVNEASGAEANFPGLGDSSLILPMSNNSDSDIDIDAEEGSTRSKRNSLLRRKVIRPEGIRKIVDCVDDRMLIFDPADRNPLNKVSDQVLNSMRARATKATASSINNSNATNKFSSQRRRHGGEIKFVFDKLFDETSSQARVYKETTSPLLDSVLDGFNSTVFAYGATGCGKTYTVSGTPSQPGIIFLAMEELFNKITDLKDEKDFEISLSYLEIYNERIRDLLKPETPSARLVIAEDTQNHIKVANLSYHHPNTVEDVMDLVVQGNINRTTSPTEANEVSSRSHAVLQIHIMQTNKLVDLTSQHTFATLSIIDLAGSERAAATRNRGIRLHEGANINRSLLALGNCINALCLNDGSRSCHIPYRDSKLTRLLKFSLGGNCKTVMIVCISPSSSHYDETLNTLKYANRAKEIKTKIIRNQQSLSRHVGSYLKMITEQKRQIEELREREEKMISLKLTKYKLNKEKIQLAINECVNRVQQTYAGVETYQVAKTLKSLILCKRRFLQMVKLEVDNLILLFEREESTAAEMQPVISNCRMISGQLYNKIHELEMKFDETDTLSSVIHQVHSIDLNKLREMEDWDETYDLVYLESCLNQISELQRNEILVNSSIMTEKLMSDPGLNSRFKFLSKWLMNRTPNIESIIQDLVHIDEEFESFARTFIANPDSNFTNTNINIINTTAADLAVPAETLQRQNFSQKKVKWTSPDLSPSPMIEPQPELEPELHQDQDAIASEVDVSMQDTTFNEQGPSTPSAPTTAVPRRKMRSSLLTHQSLLATARK
modifications: TMR (HALO-TMR ligand) on the HALO tag

Assays:
[1] = target: Kip3_(448) K257A-R262A (yeast); experiment: BLI
[2] = target: Kip3_(448)^R351A-R353A (yeast); experiment: BLI
[3] = target: tubulin purified from bovine brains (αβ-tubulin heterodimer) (bovine)

Molecule	fold weaker affinity (increased Kd) relative to wild-type Kip3 (448) [1] [fold]	fold lower affinity (against Kip3 (448)) [2] [fold]	plus-end dwell time on microtubules, against wild type [3] [fold]
tubulin purified from bovine brains (αβ-tubulin heterodimer) (complex)	10	1.8	–
B1	–	–	2
